Assay results as given in patent publication US11781164B2, “Demethylation of reticuline and derivatives thereof with fungal cytochrome P450” (priority 2017, dated 2023).

Test system: thebaine
Experiment: Demethylation of thebaine by new cytochrome P450 fungal and plant homologs co-expressed with CPRs in S. cerevisiae
Conditions: 0.5 mM thebaine, SC or DELFT media pH 7, 72 h; for Northebaine production: 30° C., co-expressed with Cel_CPR_co, Tp_CPR_5866, Tp_CPR_DN10898 or POR1

Row | Molecule | Northebaine production | O-demethylation activity compared to the positive control Ps_CODM_co | O-demethylation activity, converting thebaine to oripavine | nororipavine production in the presence of thebaine
1 | CYPDN9: cytochrome P450 homolog A0A1X2HQ99 from Syncephalastrum racemosum, codon-optimized (protein, listed as Syncephalastrum racemosum, codon-optimized) MFRPPAGLPKLPIINYFRLLWALYRKESPTRRSQRLILPALQKHNAKAYLAKVPYTWTVYLVDPVAVKTFLMRNGTFPKTMESIDAFDQSHPNVQFWGRENLGFSVGDSWKRQRKIIFPAFRRAMPVQLFGELVPKMFDLIDKEHSTIAIDLMQRFTLDALGLAAFSFDFHALDNHNNEWEVAYEMIRKELVSPLTNMLARYDYILKYIIPGRAEKQAAVSKINHLLSDIANERRKMIKRNPDMLKVPDSEKDLLTLMLESDLENSDDPASEELIRANLATFFLAGHDTTANTLSFWLYHLAMYKDIQKKAREEVIETMGGAPEDIVPTAEQLKKMKYMDCIIKENLRFMGPALELFPRIAKEDYNLNGIFIPKGTRVSVDLHTLHHHPDVWKEPERFDPLRFVENGEHSKHEGLSWIAFSSGARVCIGQNFSLVEQRVVMSMLLRRYEWDIPEDSIHREGLQLKDTNNQAPRSLEIVFKKRY | − |  |  | 
2 | CYPDN8: cytochrome P450 homolog A0A0C7AZL4 from Rhizopus microsporus, codon-optimized (protein, listed as Rhizopus microsporus, codon-optimized) MDHLIQVYNSSTQVLIPVLQKRSKASYITAAIALIIAQRLYSYFRVPKHLRGFPKLPYFGIAKSFFAKESPRERVKKYILPIINERDGFYISNIPFGWMLYVTNPIAAKQILLKSNGFPKNHGLLEDMGENLFIEFIGKDNVVLTNGDTWKRQRKVMNPAFHHSLPIKTMSNVVFSLISVIDQANGTVPVASTMQNFTLDTLGLAIFGFDFKALQGDGDEWTKTYRLVSDCLFDPIINVFSSYSFIFDRIYPRRRRGAMATRKLGEKFLEIAQQKRMEIKSGAFADVPDNEKDLLTLMLEAEEKGDVWTSEDELRHNIAVLFLAGHDTTAHALSFCFYHLAKNKDIQQKLRKEVLDLLGDEPVDVVPTVEQLKDMQYLNMVIKENLRMNSPADMLFSRDVQEDIVLANTFIPKGTVISINIEALHCNPKLWHNPDQFDPERFAPGGEHEQHEGMTWLPFSNGTRQCLGMNFSLFEQRLVIAMILKKYEISIPEDSIHRNHIINDMPFNVAPKSLELTFTKRY | + | substantially higher | display 0-demethylation activity | detected
3 | CYPDN17: cytochrome P450 homolog A0A2G4SQ34 from Rhizopus microsporus, codon-optimized (protein, listed as Rhizopus microsporus) MDHLIQVYNSSTQVLIPVLQKRSKASYITAAIALIIAQRLYSYFRVPKHLRGFPKLPYFGIAKSLLTRESPRERVKKYVLPIIDENDGFYISKIPFGWMLYIANPVAAKQLLLKSSGFPKNHGLLDNMGENLFVEFIGKDNVALSNGDTWKRQRKVMNPAFHHSLPIKTMSKVVFSLISAIEQANGTIPVASAMQNFTLDTLGLAIFGFDFKALQGDPDEWTKTYRFVSDCIFDPVINVFSSYSFIIDRIYPRRRRGAIATKKLSEKFLKIAQQKRKEIKSGAYADVPDNEKDLLTLMLEAEEKGDTWTSEDELRHNIAILFVAGHDTTAHALSFCFYHLAKNKDVQQKLRKEVLSILGDKPVDVVPTVEQLKNMQYLNMVIKENLRINSPADMLFSRDVKEDTILANTLIPKGTVVTINIEALHYNPRLWHNPDQFDPERFAPGGEHEKHEGMTWLPFSNGTRQCLGMNFSLFEQRLVIAMILKKYEISIPEDSIHRDHIVSDIPFNGAPKSLKLTFTKRH | + | substantially higher | display 0-demethylation activity | detected
